Assay [1] deals with coxsackievirus and adenovirus receptor (CAR), as used in SPR (UniProt P78310). Nature of the assay: SPR; recombinant fiber knob protein over receptor; about 5,000 RU of DSG2-Fc amine coupled to a CM5 chip at 10 μl/min; in triplicate; CAR and CD46 surfaces as previously described (ref 36).
The target in assay [2] is coxsackievirus and adenovirus receptor (CAR) on CHO-CAR cells (UniProt P78310).
Assay [3] addresses T1, coxsackievirus and adenovirus receptor (CAR), as used in SPR (UniProt P78310 20-365).
T1 chain: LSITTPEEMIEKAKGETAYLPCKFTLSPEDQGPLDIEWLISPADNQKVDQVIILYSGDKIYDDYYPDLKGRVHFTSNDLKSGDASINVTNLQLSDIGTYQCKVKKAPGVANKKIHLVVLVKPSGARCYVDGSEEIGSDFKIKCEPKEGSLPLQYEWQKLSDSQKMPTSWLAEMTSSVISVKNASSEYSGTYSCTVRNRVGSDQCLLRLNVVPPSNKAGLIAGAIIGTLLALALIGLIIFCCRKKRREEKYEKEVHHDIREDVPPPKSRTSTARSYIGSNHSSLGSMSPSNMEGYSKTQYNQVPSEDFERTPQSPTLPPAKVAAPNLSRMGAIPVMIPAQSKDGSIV
Nature of the assay: SPR.

With “human adenovirus type 49 fiber knob protein (domain or fragment)”, the Kd in assay [1] is 190 nM. Besides, the inhibition of HAdV-C5 transduction (luciferase) of CHO-CAR cells preincubated with recombinant HAdV-D49K in assay [2] worked out at 50%.

B1: human adenovirus type 49 fiber knob protein (domain or fragment)
chain: MRGSHHHHHHGSKKGDLVAWNKENDRRTLWTTPDPSPNCKVSEEKDSKLTLVLTKCGSQILASVSLLVVKGKFANINNKTNPGEDYKKFSVKLLFDANGKLLTGSSLDGNYWNYKNKDSVIGSPYENAVPFMPNSTAYPKIINNGTANPEDKKSAAKKTIVTNVYLGGDAAKPVATTISFNKETESNCVYSITFDFAWNKTYKNVPFDSSSLTFSYIAQDAEDKNE
In the case of B1, the koff in assay [3] came out at 0.0012 s⁻¹.

The values above are taken from publication PMC7851562 (2020).
